Non-standard residues stand in square brackets, D forms with d. No end group written: not given here.
Target: soluble human furin (human) (UniProt P09958)
Experiment: enzyme inhibition

B1: nona-D-arginine (peptide)
peptide: [dR][dR][dR][dR][dR][dR][dR][dR][dR]
With B1 as the binder, how does the Ki read?
Its Ki is 140 nM.

Source: article PMC4737579
